# Results reported in patent US20090181444A1, “MODIFIED CARBOHYDRATE PROCESSING ENZYME” (priority 2002, published 2009).
# Key:
# Assay type in all cases: biochemical
# [1] = Substrate specificity compared across 4-methylumbelliferyl-β-D-glycosides
# Description: (§1) Parameters were determined by the method of initial rates. Activity was measured in time course assays of the hydrolysis of 4-methylumbelliferyl-β-D-glycosides (β-D-gluco, β-D-galacto, β-D-fuco, β-D-manno, β-D-xylo, β-D-glucurono) at 5-15 concentrations (0.001-1.5 mM) incubated at 80° C. in 50 mM sodium phosphate buffer, pH 6.5. Reactions were terminated at 2, 5, 10, 15 min by the addition of 100 μl of ice cold 1M NazCO3, pH 10 and analyzed (Labsystems Fluoroscan Ascent plate reader, […]). KM and kcat were derived by fitting the initial rates to hyperbolic Michaelis-Menten curves using GraFit 4 (Erithacus Software Ltd, Staines, UK).
# (§2) Determination of the Michaelis-Menten parameters for the WT and mutant enzymes was performed at pH 6.5 at 80° C. for a broad range of representative, fluorophore-containing 4-methylumbelliferyl glycoside substrates, which allowed activities to be determined with a high degree of sensitivity (Table). Under these optimized assay conditions, the glucoside (Glc), galactoside (Gal) and fucoside (Fuc) substrates were hydrolysed well by SSβG-WT, but the xyloside (Xyl) substrate was hydrolysed relatively poorly (approx. 3% of turnover as determined by kcat compared with β-D-glucoside). […] In all cases the absolute D-stereospecificity and β-stereoselectivity of SSβG was maintained and no activity was detected towards L- or α-glycoside substrates.
# [2] = Hydrolysis of 4-methylumbelliferyl-β-D-xyloside, initial rates; conditions: 80° C., pH 6.5
# Description: as §1, §2
# [3] = Hydrolysis of 4-methylumbelliferyl-β-D-mannoside, initial rates; conditions: 80° C., pH 6.5
# Description: as §1, §2
# [4] = Kinetic assay with o-nitrophenyl β-D-galactopyranoside-6-phosphate, absorbance at 405 nm; conditions: oNPGalP6, 45° C., pH 6.5 phosphate buffer; averaged over 3 runs, except * 2 runs
# Description: The kinetic activity of SsδG was assessed using ultra-violet/visible spectroscopy. Cleavage of the glycosidic bond of the nitrophenyl sugar analogue releases a chromophore (Scheme 18), either p-nitrophenol or o-nitrophenol.
# The absorbance of these chromophores at 405 nm was continuously measured at regular time intervals, and the Beer-Lambert Law used to calculate the chromophore concentration at each of these time intervals.
# In order to use this equation the extinction coefficient, ∈, of both p-nitrophenol and o-nitrophenol were calculated. Enzyme kinetic parameters were assessed using the initial rates method. The gradient of a plot of chromophore concentration against time gave the initial rate of reaction at a series of substrate concentrations (0.05-10 mM). Kinetic parameters were calculated by regression analysis of the kinetic data on the Michaelis-Menten Model (Fersht, A., Enzyme Structure and Mechanism, W.H. Freeman and Company, New York (1985)). The initial rate of reaction was measured. This model is valid when [substrate]>>[enzyme], which are initial rate conditions.
# KM and νmax were calculated from non-linear Michaelis-Menten and linear Lineweaver-Burk plots. From these values, kcat and kcat/KM were calculated and compared.
# KM=νmax/2, it is the concentration of substrate at which half the active sites are filled. Higher KM values correspond to weaker binding and lower KM values correspond to stronger binding kcat, the turnover number is the number of substrate molecules which are converted to product when the enzyme is saturated with substrate and ν (rate) is maximised. […] To allow comparison of the activity of the enzymes, ln({kcat/KM}mutant/{kcat/KM}WT) was calculated for each enzyme-substrate combination, to give overall activity relative to WT.
# Substrate solutions (concentration 10 mM in 50 mM pH 6.5 phosphate buffer) were prepared. […] The enzyme stock solution (˜1 mgmL^−1) was diluted between 16- and 80-fold depending on the kinetic parameters determined*. […] Simultaneously a 96-well flat bottom microtitre plate was incubated at 45° C. in a plate reader. […] The plate containing the enzyme and substrate solutions was then incubated in the plate reader at 45° C. to allow equilibration. […] Release of p-nitrophenol/o-nitropbenol was measured by absorbance at […], with an automix of 3 s before the first read and Is between every subsequent read. The run time chosen was between 6 min and 10 min*, and readings were taken at intervals of between 6 s and 10 s*.
# A graph of concentration of the released chromophore (either pNP or oNP) against time was drawn for each concentration using Microsoft Excel. […] These gradients were entered into Grafit, which calculated KM and νmax from the Michelis-Menten and Lineweaver-Burk plots. From these kcat and kcat/KM could be calculated. […]
# [5] = Hydrolysis of 4-methylumbelliferyl-β-D-fucoside, initial rates; conditions: 4-MUFuc, 80° C., pH 6.5
# Description: as §1, §2
molecule,measurement,setting,value
"WT: Wild type β-glycosidase from Sulfolobus solfataricus (SEQ ID NO: 2), recombinant with N-terminal His6-tag (protein, listed as Sulfolobus solfataricus, N-terminal His6 tag) MYSFPNSFRFGWSQAGFQSEMGTPGSEDPNTDWYKWVHDPENMAAGLVSGDLPENGPGYWGNYKTFHDNAQKMGLKIARLNVEWSRIFPNPLPRPQNFDESKQDVTEVEINENELKRLDEYANKDALNHYREIFKDLKSRGLYFILNMYHWPLPLWLHDPIRVRRGDFTGPSGWLSTRTVYEFARFSAYIAWKFDDLVDEYSTMNEPNVVGGLGYVGVKSGFPPGYLSFELSRRHMYNIIQAHARAYDGIKSVSKKPVGIIYANSSFQPLTDKDMEAVEMAENDNRWWFFDAIIRGEITRGNEKIVRDDLKGRLDWIGVNYYTRTVVKRTEKGYVSLGGYGHGCERNSVSLAGLPTSDFGWEFFPEGLYDVLTKYWNRYHLYMYVTENGIADDADYQRPYYLVSHVYQVHRAINSGADVRGYLHWSLADNYEWASGFSMRFGLLKVDYNTKRLYWRPSALVYREIATNGAITDEIEHLNSVPPVKPLRH",specificity range of kcat/KM for Glc:Gal:Xyl:Man,[1],100 fold
same,Km,[2]; 4-MUXyl,130 ± 30 µM
same,kcat,[2]; 4-MUXyl,3.8 ± 0.3 s⁻¹
same,turnover (kcat) towards xyloside compared with β-D-glucoside,[2],approx. 3%
same,Km,[3]; 4-MUMan,36 ± 9 µM
same,kcat,[3]; 4-MUMan,1.8 ± 0.2 s⁻¹
same,"β-D-mannoside activity, turnover relative to β-D-glucoside",[3],approx. 1%
same,Km,[4],2090 µM
same,kcat,[4],5.52 s⁻¹
same,Km,[5],11 ± 2 µM
same,kcat,[5],80 ± 2 s⁻¹
